Article PMC6599006 (Scientific Reports, 2019)

B1: DP3 (peptide)
peptide: DEHEEIFMESKGWRDR
notes: designed with the Miyazawa-Jernigan potential, one by one residue design, 16 residues; also called designed peptide DP3; source: synthetic peptide, without caps, at least 95% purity (Toray Research Center Inc.)
B2: DP2 (peptide)
peptide: EDEEGNDSDEHEE
notes: designed with the Miyazawa-Jernigan potential, one by one residue design, 13 residues; also called designed peptide DP2; source: synthetic peptide, without caps, at least 95% purity (Toray Research Center Inc.)
B3: DP6 (peptide)
peptide: EEEEEDNNDDDEEEWF
notes: designed with the Miyazawa-Jernigan potential, one by three residue design, 16 residues; designed target is residues 369-384 of p53; also called designed peptide DP6; source: synthetic peptide, without caps, at least 95% purity (Toray Research Center Inc.)
B4: DP5 (peptide)
peptide: EEEEDNNDDDEEE
notes: designed with the Miyazawa-Jernigan potential, one by three residue design, 13 residues; also called designed peptide DP5; source: synthetic peptide, without caps, at least 95% purity (Toray Research Center Inc.)
B5: DP4 (peptide)
peptide: DHIEDEEGNDSDEHEE
notes: designed with the Miyazawa-Jernigan potential, one by one residue design, 16 residues; also called designed peptide DP4; source: synthetic peptide, without caps, at least 95% purity (Toray Research Center Inc.)
B6: DP1 (peptide)
peptide: EHEEIFMESKGWR
notes: designed with the Miyazawa-Jernigan potential, one by one residue design, 13 residues; also called designed peptide DP1; source: synthetic peptide, without caps, at least 95% purity (Toray Research Center Inc.)

What follows are binders tested against T1, CT peptide (residues 367–393 of human p53) labeled with FAM at the N-terminus (human, UniProt P04637 367-393, FAM at the N-terminus) (assay: fluorescence polarisation; fluorescence anisotropy; nonlabeled peptide titrated into 5 nM FAM-labeled CT peptide; 25 °C; 20 mM HEPES, 0.5 mM EDTA, 1 mM DTT, 0.2 mg/mL BSA, pH 7.9; in the absence of salt; apparent dissociation constant, one by one binding fit). Details: both partners purified.
T1 construct: p53, human, residues 367-393 (C-terminal domain); also called CT peptide of p53; monomeric CT domain of p53; source: synthetic peptide, without caps, at least 95% purity (Toray Research Center Inc.)
T1 sequence (P04637 367-393): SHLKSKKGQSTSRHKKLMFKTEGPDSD

Question: For B1, which Kd is on record?
Answer: The Kd was 550 µM.

Question: How did the Kd turn out when B2 was run?
Answer: The Kd was 23 µM.

Question: How did the Kd turn out when B3 was run?
Answer: Its Kd is 1.2 µM.

Question: B4 was tested. Which Kd did it give?
Answer: The Kd was 3.2 µM.

Question: With B5 as the binder, how does the Kd read?
Answer: The Kd was 9 µM.

Question: B6 was tested. Which Kd did it give?
Answer: Its Kd is 60 µM.
